From publication PMC6158740 (Nucleic Acids Research, 2018) come the findings set out here.

Data set [1] addresses ComM (Vibrio cholerae, UniProt Q9KVV6). As to conditions: AMP-PNP, nonhydrolyzable analogue; pH 7.5, 37 °C.
For data set [2], the target named is T1, ComM (Vibrio cholerae, UniProt Q9KVV6 1-507).
T1 sequence: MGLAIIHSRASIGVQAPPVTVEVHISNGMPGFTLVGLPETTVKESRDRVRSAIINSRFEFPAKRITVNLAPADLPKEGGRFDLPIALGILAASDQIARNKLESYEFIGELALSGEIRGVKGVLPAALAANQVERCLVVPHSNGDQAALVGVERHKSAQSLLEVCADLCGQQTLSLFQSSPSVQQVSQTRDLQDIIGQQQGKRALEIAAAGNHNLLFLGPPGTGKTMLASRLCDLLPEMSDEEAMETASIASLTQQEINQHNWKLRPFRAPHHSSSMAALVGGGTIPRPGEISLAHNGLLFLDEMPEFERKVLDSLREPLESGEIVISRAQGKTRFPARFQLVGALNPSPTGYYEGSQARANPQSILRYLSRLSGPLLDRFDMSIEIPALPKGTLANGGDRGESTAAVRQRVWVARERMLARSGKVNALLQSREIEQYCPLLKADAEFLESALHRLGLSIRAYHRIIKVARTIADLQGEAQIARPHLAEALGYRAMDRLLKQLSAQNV
Kind of data set: EMSA. On the technique in general: In EMSA bound probe runs differently from free probe, usually more slowly.

For the molecule `Nc1ncnc2c1ncn2[C@@H]1O[C@H](COP(=O)(O)OP(=O)(O)NP(=O)(O)O)[C@@H](O)[C@H]1O` [AMP-PNP], on ComM [1], the “three-strand branch migration assay, gel; oligomerization assay” value was “This activity was inhibited when ComM was incubated with AMP-PNP”.
As for ATTCCGGGGATCCGTCGACCTGCAGTTCAGAAGCAGCTCCAGCCTACA (ssDNA) [BBC742 ssDNA probe], the binding result in the data set with ComM [2] is “binds”.

B1: BBC742/BBC743 dsDNA probe (dsDNA)
DNA 1: ATTCCGGGGATCCGTCGACCTGCAGTTCAGAAGCAGCTCCAGCCTACA
DNA 2: TGTAGGCTGGAGCTGCTTCTGAACTGCAGGTCGACGGATCCCCGGAAT
Take B1: the binding result with ComM [2] is on record as “binds”.
